Measured values published in US20150266949A1 (INFLARX, published 2015).

T1: human C5a (human, UniProt P01031 678-751)
T1 construct: Recombinant C5a was expressed in E. coli BL21 from pET-32a and purified on a nickel column; also called recombinant C5a; rhC5a
T1 sequence: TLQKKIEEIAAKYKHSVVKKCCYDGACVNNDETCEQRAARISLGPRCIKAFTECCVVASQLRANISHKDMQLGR


Experiments:
human C5a [1] = biological target: T1, human C5a; assay: method not stated (Table 3, column Affinity)
human C5a [2] = biological target: T1, human C5a; assay: cell-based or functional assay
human C5a [3] = biological target: T1, human C5a; assay: cell-based or functional assay; remark: listed apart in the source

Binder	Kd (human C5a [1]) [nM]	blocking activity to C5a bioactivity (C5a-induced lysozyme release assay), molar ratio of antibody to C5a 1:2 (human C5a [2]) [%]	Blocking activity (inhibition of C5a-induced lysozyme release from human whole blood cells) at a ratio of Ab to C5a of ½:1 (human C5a [3]) [%]
INab308 (antibody, V domains shown, Mouse monoclonal antibody from a hybridoma (BALB/c mice immunized with recombinant human C5a), purified from ascites on protein A; said to be bivalent) VH: QVQLQQSGPQLVRPGTSVKISCKASGYSFTTFWMDWVKQRPGQGLEWIGRIDPSDSESRLDQRFKDRATLTVDKSSSTVYMQLSSPTSEDSAVYYCARGNDGYYGFAYWGQGTLVTVSS VL: DIVLTQSPASLAVSLGQRATISCKASQSVDYDGDSYMKWYQQKPGQPPKLLIYAASNLQSGIPARFSGSGSGTDFTLNIHPVEEEDAATYYCQQSNEDPYTFGGGTKLEIK	0.5	94	≥ 90
INab708 (antibody, V domains shown, Mouse monoclonal antibody from a hybridoma (BALB/c mice immunized with recombinant human C5a), purified from ascites on protein A; said to be bivalent) VH: VQLLESGAELMKPGASVKISCKATGNTFSGYWIEWVKQRPGHGLEWIGEILPGSGSTNYNEKFKGKATLTADTSSNTAYMQLSSLTSEDSAVYYCTRRGLYDGSSYFAYWGQGTLVTVSA VL: DIVLTQSPASLAVSLGQRATISCKASQSVDYDGDSYMNWYQQKPGQPPKLLIYAASNLGSGIPARFSGSGSGTDFTLNIHPVEEEVAATYYCQQNNEDPLTFGAGTLLELK	0.51	100	≥ 90
